Data on three molecules can be found in paper PMC6829326 (International Journal of Molecular Sciences, 2019).

The test concerns the target T1, recombinant MERS-CoV S RBD protein (MERS-CoV, strain ; EMC/2012 …, UniProt K0BRG7).
T1 construct: source: bought: Sino Biological Inc
Kind of test: ELISA. Particulars: one partner purified. On the technique in general: In an ELISA, binding on a coated surface is turned into a signal by an enzyme label.

B1: C-8-2 scFv displayed on phage (scFv, V domains shown)
VH: EVQLVQSGAEVKKPGSSVKVSCKASGGTESSEAISWVRQAPGQGLEWMGGIIPFFGTANYAQKFQGRVTITADESTSTAYMELSSLRSEDTAVYYCARDGRKDYYGSGSYLHYYGMDVWGQGTTVTVSS
VL: ELVMTQSPLSLPVTPGEPASISCRSSQSLLHSNGYNYLDWYLQRPGQSPQLLIYLGSNRASGVPDRFSGSGSGTDFTLKIGRVEAEDVGIYYCMQALQTPLTFGGGTKVEIK
notes: also called C-8-2 clone
On to B1, for which the binding result is reported as “binds”.

B2: C-8-2-4B-10D scFv displayed on phage (scFv, V domains shown)
VH: EVQLVQSGAEVKKPGSSVKVSCKASDGKEKREAISWVRQAPGQGLEWMGGIIPFFDKANYAQKFQGRVTITADESTSTAYMELSSLRSEDTAVYYCARDGRKDYYGSGSYLHYYGMDVWGQGTTVTVSS
VL: ELVMTQSPLSLPVTPGEPASISCRSSQSLVHSNGYNYLDWYLQRPGQSPQLLIYLGSNRASGVPDRFSGSGSGTDFTLKIGRVEAEDVGIYYCMQAVQTPLTFGGGTKVEIK
Take B2: the binding result is recorded as “binds”.

B3: C-8-2-4B scFv displayed on phage (scFv, V domains shown)
VH: EVQLVQSGAEVKKPGSSVKVSCKASDGKEKREAISWVRQAPGQGLEWMGGIIPFFDKANYAQKFQGRVTITADESTSTAYMELSSLRSEDTAVYYCARDGRKDYYGSGSYLHYYGMDVWGQGTTVTVSS
VL: ELVMTQSPLSLPVTPGEPASISCRSSQSLLHSNGYNYLDWYLQRPGQSPQLLIYLGSNRASGVPDRFSGSGSGTDFTLKIGRVEAEDVGIYYCMQALQTPLTFGGGTKVEIK
notes: also called clone C-8-2-4B
For the molecule B3, the binding result was “binds”.
